Test results as given in patent US20200291096A1, “BICYCLIC PEPTIDE LIGAND STING CONJUGATES AND USES THEREOF” (priority 2017, published 2020).
Starred links: 1 amine or outer side, 2 acyl side, 3 side chain; linkers in the order of their positions; H or OH if unused. Positions of bridges follow the written chain, without caps; N, C: chain ends. Non-standard residues stand in square brackets, D forms with d. Residues, ends and D or L forms follow the SMILES beside them. *: point of attachment. X1 = CC(C)[C@H](NC(=O)Cn1cc(CCC(=O)*)nn1)C(=O)N[C@@H](CCCNC(N)=O)C(=O)Nc1ccc(COC(=O)N(C)CCN(C)C(=O)O[C@@H]2[C@@H]3OP(=O)(O)OC[C@H]4O[C@@H](n5cnc6c(N)ncnc65)[C@H](O)[C@@H]4OP(=O)(O)OC[C@H]3O[C@H]2n2cnc3c(=O)[nH]c(N)nc32)cc1; X4 = CC(C)[C@H](NC(=O)Cn1cc(CCC(=O)*)nn1)C(=O)N[C@@H](CCCNC(N)=O)C(=O)Nc1ccc(COC(=O)NCCNC(=O)O[C@@H]2[C@@H]3OP(=O)(O)OC[C@H]4O[C@@H](n5cnc6c(N)ncnc65)[C@H](O)[C@@H]4OP(=O)(O)OC[C@H]3O[C@H]2n2cnc3c(=O)[nH]c(N)nc32)cc1; X5 = Nc1nc2c(ncn2[C@@H]2O[C@@H]3COP(=O)(O)O[C@H]4[C@@H](O)[C@H](n5cnc6c(N)ncnc65)O[C@@H]4COP(=O)(O)O[C@H]3[C@H]2OC(=O)NCCSSCCCC(=O)*)c(=O)[nH]1; X2 = Nc1nc2c(ncn2[C@@H]2O[C@@H]3COP(=O)(O)O[C@H]4[C@@H](O)[C@H](n5cnc6c(N)ncnc65)O[C@@H]4COP(=O)(O)O[C@H]3[C@H]2OC(=O)*)c(=O)[nH]1; X6 = Nc1ncnc2c1ncn2[C@@H]1O[C@@H]2COP(=O)(S)O[C@H]3[C@@H](OC(=O)*)[C@H](n4cnc5c(N)ncnc54)O[C@@H]3COP(=O)(S)O[C@H]2[C@H]1F; 1Nal = N[C@@H](Cc1cccc2ccccc12)C(=O)O; TBMB = c1c(C[*:1])cc(C[*:3])cc1C[*:2]; X3 = O=C(CCc1cn(CCCN[*:1])nn1)[*:2]; Tle = CC(C)(C)[C@H](N)C(=O)O; βAla = NCCC(=O)O; Sar = CNCC(=O)O

Columns and labels:
Plasma stability (cyno) = type: in vitro ADME; conditions: cynomolgus monkey, pH 7.4, 37° C., read-out: T1/2 (cyno)
Description: (§1) The pooled frozen mouse, rat, monkey or human plasma is thawed in a water bath at 37° C. prior to experiment. Plasma is centrifuged at 4000 rpm for 5 min and the clots are removed if any. The pH is adjusted to 7.4±0.1 if required. 5 mM intermediate solutions of test compounds are prepared with DMSO. 1 mM intermediate solution of positive control Propantheline is prepared by diluting 5 μL of the stock solution with 45 μL ultra pure water. 1 mM intermediate solution of positive control Enalaprit is prepared by diluting 5 μL of the stock solution with 45 μL DMSO. 100 μM dosing solution is prepared by diluting 20 μL of the intermediate solution (1 mM) with 180 μL DMSO. For positive controls, 100 μM intermediate solution is prepared by diluting 20 μL of the stock solution with 180 μL 45% MeOH/H2O. […] 196 μL of blank plasma is spiked with 4 μL of dosing solution (100 μM) to achieve 2 μM of the final concentration in duplicate and samples are incubated at 37° C. in a water bath. At each time point (0, 1, 2, 4, 6 and 24 hr), 800 μL of stop solution (200 ng/mL tolbutamide, 200 ng/ML Labetalol in 50% MeOH/ACN) was added to precipitate protein and mixed thoroughly. Sample plates are centrifuged at 4,000 rpm for 10 min. An aliquot of supernatant (150 μL) is transferred from each well before submitting to LC-MS/MS analysis.
(§2) The percentage of test compound remaining at the individual time points relative to the 0 hour sample is calculated using following equation: Percent Remaining=100×(PAR at appointed incubation time/PAR at To time) where PAR is the peak area ratio of analyte versus internal standard (IS).

in vitro [1] = conditions: human, plasma, pH 7.4
Description: as §1, §2

in vitro [2] = conditions: rat, plasma, pH 7.4
Description: as §1, §2

in vitro [3] = conditions: mouse, plasma, pH 7.4
Description: as §1, §2

in vitro [4] = conditions: male, CD-1, mouse, whole blood
Description: CD-1 mouse blood (n >2,male, fasted overnight) is collected from animals housed at an internal facility. (EDTA-K2 is used as anticoagulant)
The test compounds and positive control stock solutions are prepared to 10 mM in DMSO or ultrapure water. […] The dosing solutions of test compounds and controls are prepared by diluting the stock solution with 45% MeOH/H2O to achieve 100 uM. Test compound solutions (final incubation concentration=2 μM) are incubated with blood (final DMSO concentration≤1%) at six different time points (0, 1, 2, 4, 6 and 24 hours) in duplicate (n=2). The reaction is terminated by adding 100 uL ultra-pure water, mixing well, then adding 800 uL of 100% methanol containing 200 ng/mL tolbutamide and 200 ng/mL labetalol as internal standards. Samples are then vortexed and centrifuged at 3200×g for 20 minutes. Following centrifugation, the concentration of test compound in the supernatant is determined semi-quantitatively by LC-MS/MS. The percentage of test compound remaining at the individual time points relative to the 0 hour sample is then reported. The percent remaining of test compound after incubation in blood is calculated using following equation: Percent Remaining=100×(PAR at appointed incubation time/PAR at To time) where PAR is the peak area ratio of analyte versus internal standard (IS).

[5] = 3 mg/kg IV, male CD-1 mice, plasma (FIG. 1)
Description: Male CD-1 mice were dosed with 3 mg/kg of Bicycle Conjugate formulated in 25 mM Histidine HCl, 10% sucrose pH 7 via tail vein injection. Serial bleeding (about 80 μL blood/time point) was performed via submadibular or saphenous vein at each time point. All blood samples were immediately transferred into prechilled microcentrifuge tubes containing 2 μL K2-EDTA (0.5M) as anti-coagulant and placed on wet ice. Blood samples were immediately processed for plasma by centrifugation at approximately +4° C., 3000 g. The precipitant including internal standard (350 uL) was immediately added into the 35 uL plasma sample, mixed well and centrifuged at 3220 g, +4° C. for 15 minutes. The supernatant was transferred into pre-labelled polypropylene microcentrifuge tubes, and then quick-frozen over dry ice. The samples were stored at −70° C. or below as needed until analysis. Supernatant samples were mixed with 50 uL water, vortexed well and centrifuged at 3220 g, +4° C. for 15 minutes. A sample of the supernatant was injected for LC-MS/MS analysis using an Acquity UPLC with AB Sciex 6500+Triple Quad MS in positive ion mode to determine the concentrations of Bicycle conjugate and released payload. Plasma concentration versus time data were analyzed by non-compartmental approaches using the Phoenix WinNonlin 6.3 software program. […]

Row | Structure (SMILES) | half-life at 2 μM (Plasma stability (cyno)) [h] | stability in mouse blood | half-life at 2 μM (in vitro [1]) [h] | half-life at 2 μM (in vitro [2]) [h] | half-life at 2 μM (in vitro [3]) [h] | half-life at 2 μM (in vitro [4]) [h] | systemic elimination [5]
1 | C[C@H](NC(=O)CN(C)C(=O)CN(C)C(=O)CN(C)C(=O)CN(C)C(=O)CN(C)C(=O)CN(C)C(=O)CN(C)C(=O)CN(C)C(=O)CN(C)C(=O)CN(C)C(=O)CCNC(=O)CCc1cn(CCCNC(=O)O[C@@H]2[C@@H]3OP(=O)(O)OC[C@H]4O[C@@H](n5cnc6c(N)ncnc65)[C@H](O)[C@@H]4OP(=O)(O)OC[C@H]3O[C@H]2n2cnc3c(=O)[nH]c(N)nc32)nn1)C(=O)N[C@H]1CSCc2cc3cc(c2)CSC[C@H](NC(=O)[C@@H](C)NC(=O)[C@H](Cc2cccc4ccccc24)NC(=O)[C@H](CCC(=O)O)NC(=O)[C@H](CC(N)=O)NC(=O)[C@@H](C)NC1=O)C(=O)N[C@@H](CCC(=O)O)C(=O)N[C@@H](CC(=O)O)C(=O)N[C@@H](Cc1ccccc1)C(=O)N[C@@H](Cc1ccc(O)cc1)C(=O)N[C@@H](CC(=O)O)C(=O)N[C@@H](C(C)(C)C)C(=O)N[C@H](C(N)=O)CSC3 [I-66] (X2-[X3][βAla][Sar][Sar][Sar][Sar][Sar][Sar][Sar][Sar][Sar][Sar]AC[dA]NE[1Nal][dA]CEDFYD[Tle]C-NH2; linker 14-20-27 via TBMB) | > 24 | dramatic stability | > 24 | > 24 | > 24 | 6 to 24 | 
2 | C[C@H](NC(=O)CN(C)C(=O)CN(C)C(=O)CN(C)C(=O)CN(C)C(=O)CN(C)C(=O)CN(C)C(=O)CN(C)C(=O)CN(C)C(=O)CN(C)C(=O)CN(C)C(=O)CCNC(=O)CCCSSCCNC(=O)O[C@@H]1[C@@H]2OP(=O)(O)OC[C@H]3O[C@@H](n4cnc5c(N)ncnc54)[C@H](O)[C@@H]3OP(=O)(O)OC[C@H]2O[C@H]1n1cnc2c(=O)[nH]c(N)nc21)C(=O)N[C@H]1CSCc2cc3cc(c2)CSC[C@H](NC(=O)[C@@H](C)NC(=O)[C@H](Cc2cccc4ccccc24)NC(=O)[C@H](CCC(=O)O)NC(=O)[C@H](CC(N)=O)NC(=O)[C@@H](C)NC1=O)C(=O)N[C@@H](CCC(=O)O)C(=O)N[C@@H](CC(=O)O)C(=O)N[C@@H](Cc1ccccc1)C(=O)N[C@@H](Cc1ccc(O)cc1)C(=O)N[C@@H](CC(=O)O)C(=O)N[C@@H](C(C)(C)C)C(=O)N[C@H](C(N)=O)CSC3 [I-64] ({X5-βAla}-[Sar][Sar][Sar][Sar][Sar][Sar][Sar][Sar][Sar][Sar]AC[dA]NE[1Nal][dA]CEDFYD[Tle]C-NH2; linker 12-18-25 via TBMB) | < 2 |  | < 2 | < 2 | < 2 |  | 
3 | CC(C)[C@H](NC(=O)Cn1cc(CCC(=O)NCCC(=O)N(C)CC(=O)N(C)CC(=O)N(C)CC(=O)N(C)CC(=O)N(C)CC(=O)N(C)CC(=O)N(C)CC(=O)N(C)CC(=O)N(C)CC(=O)N(C)CC(=O)N[C@@H](C)C(=O)N[C@H]2CSCc3cc4cc(c3)CSC[C@H](NC(=O)[C@@H](C)NC(=O)[C@H](Cc3cccc5ccccc35)NC(=O)[C@H](CCC(=O)O)NC(=O)[C@H](CC(N)=O)NC(=O)[C@@H](C)NC2=O)C(=O)N[C@@H](CCC(=O)O)C(=O)N[C@@H](CC(=O)O)C(=O)N[C@@H](Cc2ccccc2)C(=O)N[C@@H](Cc2ccc(O)cc2)C(=O)N[C@@H](CC(=O)O)C(=O)N[C@@H](C(C)(C)C)C(=O)N[C@H](C(N)=O)CSC4)nn1)C(=O)N[C@@H](CCCNC(N)=O)C(=O)Nc1ccc(COC(=O)NCCNC(=O)O[C@@H]2[C@@H]3OP(=O)(O)OC[C@H]4O[C@@H](n5cnc6c(N)ncnc65)[C@H](O)[C@@H]4OP(=O)(O)OC[C@H]3O[C@H]2n2cnc3c(=O)[nH]c(N)nc32)cc1 [I-65] ({X4-βAla}-[Sar][Sar][Sar][Sar][Sar][Sar][Sar][Sar][Sar][Sar]AC[dA]NE[1Nal][dA]CEDFYD[Tle]C-NH2; linker 12-18-25 via TBMB) | > 24 |  | > 24 | > 24 | 6 to 24 |  | 
4 | C[C@H](NC(=O)CN(C)C(=O)CN(C)C(=O)CN(C)C(=O)CN(C)C(=O)CN(C)C(=O)CN(C)C(=O)CN(C)C(=O)CN(C)C(=O)CN(C)C(=O)CN(C)C(=O)CCNC(=O)CCc1cn(CCCNC(=O)O[C@@H]2[C@@H]3OP(=O)(S)OC[C@H]4O[C@@H](n5cnc6c(N)ncnc65)[C@H](F)[C@@H]4OP(=O)(S)OC[C@H]3O[C@H]2n2cnc3c(N)ncnc32)nn1)C(=O)N[C@H]1CSCc2cc3cc(c2)CSC[C@H](NC(=O)[C@@H](C)NC(=O)[C@H](Cc2cccc4ccccc24)NC(=O)[C@H](CCC(=O)O)NC(=O)[C@H](CC(N)=O)NC(=O)[C@@H](C)NC1=O)C(=O)N[C@@H](CCC(=O)O)C(=O)N[C@@H](CC(=O)O)C(=O)N[C@@H](Cc1ccccc1)C(=O)N[C@@H](Cc1ccc(O)cc1)C(=O)N[C@@H](CC(=O)O)C(=O)N[C@@H](C(C)(C)C)C(=O)N[C@H](C(N)=O)CSC3 (stereo partly shown) [Conjugate 1 of Example 7.4] (X6-[X3][βAla][Sar][Sar][Sar][Sar][Sar][Sar][Sar][Sar][Sar][Sar]AC[dA]NE[1Nal][dA]CEDFYD[Tle]C-NH2; linker 14-20-27 via TBMB) | > 24 |  | > 24 | > 24 | 6 to 24 |  | 
5 | CC(C)[C@H](NC(=O)Cn1cc(CCC(=O)NCCC(=O)N(C)CC(=O)N(C)CC(=O)N(C)CC(=O)N(C)CC(=O)N(C)CC(=O)N(C)CC(=O)N(C)CC(=O)N(C)CC(=O)N(C)CC(=O)N(C)CC(=O)N[C@@H](C)C(=O)N[C@H]2CSCc3cc4cc(c3)CSC[C@H](NC(=O)[C@@H](C)NC(=O)[C@H](Cc3cccc5ccccc35)NC(=O)[C@H](CCC(=O)O)NC(=O)[C@H](CC(N)=O)NC(=O)[C@@H](C)NC2=O)C(=O)N[C@@H](CCC(=O)O)C(=O)N[C@@H](CC(=O)O)C(=O)N[C@@H](Cc2ccccc2)C(=O)N[C@@H](Cc2ccc(O)cc2)C(=O)N[C@@H](CC(=O)O)C(=O)N[C@@H](C(C)(C)C)C(=O)N[C@H](C(N)=O)CSC4)nn1)C(=O)N[C@@H](CCCNC(N)=O)C(=O)Nc1ccc(COC(=O)N(C)CCN(C)C(=O)O[C@@H]2[C@@H]3OP(=O)(O)OC[C@H]4O[C@@H](n5cnc6c(N)ncnc65)[C@H](O)[C@@H]4OP(=O)(O)OC[C@H]3O[C@H]2n2cnc3c(=O)[nH]c(N)nc32)cc1 [I-68] ({X1-βAla}-[Sar][Sar][Sar][Sar][Sar][Sar][Sar][Sar][Sar][Sar]AC[dA]NE[1Nal][dA]CEDFYD[Tle]C-NH2; linker 12-18-25 via TBMB) | > 24 | dramatic stability | > 24 | > 24 | 6 to 24 | 2 to 6 | rapid systemic elimination
